# Reference: patent publication US20250250355A1 (BIOSION, published 2025)
# Where two headings read alike, the source gives them in different places.
# T1: cynomolgus SIRPα-his protein (cynomolgus)
# T1 construct: also called Cyno SIRPα-his; monkey SIRPα
# T1 chain: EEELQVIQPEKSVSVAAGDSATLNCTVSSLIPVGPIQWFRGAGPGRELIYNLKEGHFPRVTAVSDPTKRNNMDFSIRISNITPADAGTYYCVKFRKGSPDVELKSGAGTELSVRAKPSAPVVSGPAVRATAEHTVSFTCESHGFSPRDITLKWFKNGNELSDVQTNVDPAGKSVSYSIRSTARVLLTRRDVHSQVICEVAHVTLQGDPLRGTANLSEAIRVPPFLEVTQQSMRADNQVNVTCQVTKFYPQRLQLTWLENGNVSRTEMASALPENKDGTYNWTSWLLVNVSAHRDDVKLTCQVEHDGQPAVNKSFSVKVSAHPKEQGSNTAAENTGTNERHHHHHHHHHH
# Tests used:
# [1] = target: human SIRPα-isoform 2-his protein (human); assay: indirect ELISA on coated human SIRPα-isoform 2-his, OD(450-630); curve flat at the baseline (see non_binding)
# [2] = target: T2, full length human SIRPα on cell membranes (HEK293-SIRPα cells; 293F-SIRPα cells) (human, UniProt P78324 31-504); assay: cell based binding FACS on HEK293-SIRPα cells, MFI
# T2 construct: whole, on cells; also called cell surface human SIRPα; cell surface SIRPα
# [3] = target: T3, human SIRPα protein (soluble, used on 293F-CD47 cells) (human, UniProt P78324 31-370, limits assumed); assay: cell based blocking FACS on 293F-CD47 cells; soluble human SIRPα protein blocked from binding cell surface human CD47, MFI; curve not visible in the scan
# [4] = target: T1, cynomolgus SIRPα-his protein; assay: indirect ELISA on coated cynomolgus SIRPα-his, OD(450-630); curve not visible in the scan
# [5] = target: T2, full length human SIRPα on cell …; assay: cell based blocking FACS on 293F-SIRPα cells; blocked ligand: human CD47 protein (CD47-Fc), MFI; curve not visible in the scan
# [6] = target: human SIRPα-isoform 2-his protein (human); assay: indirect ELISA on coated human SIRPα-isoform 2-his, OD(450-630); curve not visible in the scan
# [7] = target: T1, cynomolgus SIRPα-his protein; assay: indirect ELISA on coated cynomolgus SIRPα-his, OD(450-630); curve not visible in the scan
# [8] = target: T4, recombinant human SIRPα-Fc protein (human, biotin-labeled (sites not given)); assay: capture ELISA, antibody captured on anti-mouse IgG F(ab')2, biotin-labeled human SIRPα-Fc in solution, OD(450-630); curve not visible in the scan
# T4 construct: also called biotin-labeled human SIRPα-Fc protein
# [9] = target: T5, full length human SIRPβ on cell membranes (HEK293-SIRPβ cells; 293F cells expressing human SIRPβ) (human, UniProt O00241 30-398); assay: cell based binding FACS on 293F cells expressing human SIRPβ, MFI; curve not visible in the scan
# T5 construct: whole, on cells; also called cell surface human SIRPβ
# human SIRPα-his protein [10] = target: T6, human SIRPα-his protein (human, UniProt P78324 31-370); assay: SPR (Biacore T200); antibody captured on Protein A chip, human SIRPα-his flowed from 200 nM; 1:1 Langmuir fit
# [11] = target: T3, human SIRPα protein (soluble, used on …); assay: cell based blocking FACS on 293F-CD47 cells; soluble human SIRPα protein blocked from binding cell surface human CD47, MFI; curve not visible in the scan; remark: listed apart in the source
# [12] = target: T2, full length human SIRPα on cell …; assay: cell based blocking FACS on 293F-SIRPα cells; blocked ligand: biotin-labeled human CD47-Fc, MFI
# human SIRPα-his protein [13] = target: T6, human SIRPα-his protein; assay: competitive ELISA on coated human SIRPα-his; blocked ligand: biotin-labeled human CD47-his, OD(450-630); curve not assignable in the scan
# human SIRPβ-his protein = human SIRPβ-his protein (human, UniProt O00241 30-371); assay: SPR (Biacore T200); antibody captured on Protein A chip, human SIRPβ-his flowed from 200 nM; 1:1 Langmuir fit
# [14] = target: T2, full length human SIRPα on cell …; assay: cell based blocking FACS on 293F-SIRPα cells; blocked ligand: human CD47 protein (CD47-Fc), MFI; curve not visible in the scan; remark: listed apart in the source
# [15] = target: T5, full length human SIRPβ on cell …; assay: cell based binding FACS on HEK293-SIRPβ cells, MFI
# [16] = target: human SIRPα-isoform 2-his protein (human); assay: indirect ELISA on coated human SIRPα-isoform 2-his, OD(450-630); curve not visible in the scan; remark: listed apart in the source
# [17] = target: T5, full length human SIRPβ on cell …; assay: cell based binding FACS on 293F cells expressing human SIRPβ, MFI; curve not visible in the scan; remark: listed apart in the source
# [18] = target: T7, human SIRPα-V8-his protein (human, UniProt P78324 31-370, limits assumed); assay: indirect ELISA on coated human SIRPα-V8-his, OD(450-630); curve not visible in the scan
# [19] = target: T2, full length human SIRPα on cell …; assay: cell based binding FACS on 293F cells expressing human SIRPα, MFI; curve not visible in the scan
# [20] = target: T2, full length human SIRPα on cell …; assay: as above; remark: listed apart in the source
# [21] = target: T7, human SIRPα-V8-his protein; assay: indirect ELISA on coated human SIRPα-V8-his, OD(450-630); curve flat at the baseline (see non_binding)
# human SIRPβ-his protein, sequence (O00241 other isoform, or with tags, fused parts or gaps limits assumed): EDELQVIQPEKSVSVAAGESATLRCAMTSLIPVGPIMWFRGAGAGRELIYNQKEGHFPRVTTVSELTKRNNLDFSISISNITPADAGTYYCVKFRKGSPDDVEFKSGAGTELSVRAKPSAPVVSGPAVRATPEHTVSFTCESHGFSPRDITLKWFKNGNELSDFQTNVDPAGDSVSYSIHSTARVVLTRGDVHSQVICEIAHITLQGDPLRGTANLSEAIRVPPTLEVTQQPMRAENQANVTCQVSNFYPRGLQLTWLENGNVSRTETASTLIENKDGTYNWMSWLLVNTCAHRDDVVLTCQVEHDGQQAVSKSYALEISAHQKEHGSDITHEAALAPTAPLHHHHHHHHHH
# T6 sequence (P78324 other isoform, or with tags, fused parts or gaps limits assumed): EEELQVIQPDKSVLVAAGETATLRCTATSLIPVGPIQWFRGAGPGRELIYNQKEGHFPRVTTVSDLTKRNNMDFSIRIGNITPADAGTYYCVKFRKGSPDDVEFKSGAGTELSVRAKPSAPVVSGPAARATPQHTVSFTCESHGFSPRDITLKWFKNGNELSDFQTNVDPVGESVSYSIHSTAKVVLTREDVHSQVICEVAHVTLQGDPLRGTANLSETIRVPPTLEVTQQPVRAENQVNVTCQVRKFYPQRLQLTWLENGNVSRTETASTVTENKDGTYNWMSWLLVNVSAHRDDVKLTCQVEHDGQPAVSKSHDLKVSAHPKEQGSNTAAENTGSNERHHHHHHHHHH
# T2 sequence (P78324 31-504): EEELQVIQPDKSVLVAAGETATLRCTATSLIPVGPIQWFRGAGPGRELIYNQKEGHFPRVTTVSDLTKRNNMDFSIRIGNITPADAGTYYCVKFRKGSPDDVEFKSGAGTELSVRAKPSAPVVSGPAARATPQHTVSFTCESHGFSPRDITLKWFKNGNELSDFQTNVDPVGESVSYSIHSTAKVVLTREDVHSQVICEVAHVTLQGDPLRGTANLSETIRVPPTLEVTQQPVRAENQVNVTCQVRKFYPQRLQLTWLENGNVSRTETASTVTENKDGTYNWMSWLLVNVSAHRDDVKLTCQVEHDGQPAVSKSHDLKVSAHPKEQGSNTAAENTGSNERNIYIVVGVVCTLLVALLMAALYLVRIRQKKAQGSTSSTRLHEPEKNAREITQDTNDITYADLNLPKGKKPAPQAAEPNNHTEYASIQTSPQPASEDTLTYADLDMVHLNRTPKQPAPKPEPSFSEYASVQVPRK
# human SIRPα-isoform 2-his protein (human), sequence (chain, as listed by the source limits assumed): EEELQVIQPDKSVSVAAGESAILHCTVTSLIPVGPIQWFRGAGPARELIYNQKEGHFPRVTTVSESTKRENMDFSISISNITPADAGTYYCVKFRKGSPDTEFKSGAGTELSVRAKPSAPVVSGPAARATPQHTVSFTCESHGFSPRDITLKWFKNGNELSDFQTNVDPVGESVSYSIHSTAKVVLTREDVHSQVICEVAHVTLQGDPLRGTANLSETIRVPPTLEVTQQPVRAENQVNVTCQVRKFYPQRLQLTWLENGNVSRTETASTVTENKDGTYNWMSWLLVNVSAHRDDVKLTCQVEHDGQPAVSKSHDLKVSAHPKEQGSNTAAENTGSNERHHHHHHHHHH
# T5 sequence (O00241 30-398): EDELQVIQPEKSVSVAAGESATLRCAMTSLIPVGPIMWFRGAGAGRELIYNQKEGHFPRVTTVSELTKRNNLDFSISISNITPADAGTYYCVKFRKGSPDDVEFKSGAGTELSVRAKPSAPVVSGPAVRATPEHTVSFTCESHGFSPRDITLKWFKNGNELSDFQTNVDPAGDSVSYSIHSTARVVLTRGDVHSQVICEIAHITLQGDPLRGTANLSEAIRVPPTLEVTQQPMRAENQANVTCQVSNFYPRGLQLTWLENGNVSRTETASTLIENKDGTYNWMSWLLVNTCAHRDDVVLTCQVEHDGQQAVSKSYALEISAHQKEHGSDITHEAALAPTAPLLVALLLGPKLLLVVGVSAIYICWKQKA
# T7 sequence (P78324 other isoform, or with tags, fused parts or gaps limits assumed): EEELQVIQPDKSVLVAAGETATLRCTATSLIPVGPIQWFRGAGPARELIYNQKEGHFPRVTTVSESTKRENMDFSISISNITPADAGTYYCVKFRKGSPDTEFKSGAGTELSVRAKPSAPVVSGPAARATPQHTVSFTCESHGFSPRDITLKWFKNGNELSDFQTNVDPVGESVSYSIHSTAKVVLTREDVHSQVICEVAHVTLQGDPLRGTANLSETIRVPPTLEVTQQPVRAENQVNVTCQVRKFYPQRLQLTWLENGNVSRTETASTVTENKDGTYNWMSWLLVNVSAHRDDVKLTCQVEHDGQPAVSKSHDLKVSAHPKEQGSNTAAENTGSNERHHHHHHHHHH
# T3 sequence (P78324 31-370 limits assumed): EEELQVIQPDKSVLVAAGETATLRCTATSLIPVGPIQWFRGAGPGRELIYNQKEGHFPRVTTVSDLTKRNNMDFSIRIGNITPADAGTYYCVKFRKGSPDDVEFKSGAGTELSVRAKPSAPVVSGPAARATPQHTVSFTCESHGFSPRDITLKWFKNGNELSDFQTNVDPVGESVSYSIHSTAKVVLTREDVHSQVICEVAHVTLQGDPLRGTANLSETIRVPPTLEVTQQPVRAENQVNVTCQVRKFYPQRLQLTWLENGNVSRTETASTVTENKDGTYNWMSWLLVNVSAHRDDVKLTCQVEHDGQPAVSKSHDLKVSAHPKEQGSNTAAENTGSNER
# T4 sequence (chain, as listed by the source limits assumed): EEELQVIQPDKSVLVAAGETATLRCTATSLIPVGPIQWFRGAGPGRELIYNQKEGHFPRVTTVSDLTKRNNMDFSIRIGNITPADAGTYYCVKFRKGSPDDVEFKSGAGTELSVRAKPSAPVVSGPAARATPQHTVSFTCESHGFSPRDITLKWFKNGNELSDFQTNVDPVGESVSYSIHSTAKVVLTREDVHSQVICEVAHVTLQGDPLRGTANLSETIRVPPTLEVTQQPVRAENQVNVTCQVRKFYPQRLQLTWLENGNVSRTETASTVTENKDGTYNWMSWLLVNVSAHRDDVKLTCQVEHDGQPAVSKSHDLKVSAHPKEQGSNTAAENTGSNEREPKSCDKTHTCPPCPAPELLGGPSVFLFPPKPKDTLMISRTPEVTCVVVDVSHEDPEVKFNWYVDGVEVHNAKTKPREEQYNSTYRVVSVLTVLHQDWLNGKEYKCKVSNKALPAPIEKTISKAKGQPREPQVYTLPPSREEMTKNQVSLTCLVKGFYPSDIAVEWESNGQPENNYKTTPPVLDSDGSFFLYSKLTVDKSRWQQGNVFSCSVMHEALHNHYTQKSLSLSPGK
binder,measurement,setting,value
"BI-765063 (antibody, human IgG4 S228P, kappa, V domains shown, also called BM5) VH: EVQLVQSGAEVKKPGESLRISCKASGYSFTSYWVHWVRQMPGKGLEWMGNIDPSDSDTHYSPSFQGHVTLSVDKSISTAYLQLSSLKASDTAMYYCVRGGTGTLAYFAYWGQGTLVTVSS VL: DVVMTQSPLSLPVTLGQPASISCRSSQSLVHSYGNTYLYWFQQRPGQSPRLLIYRVSNRFSGVPDRFSGSGSGTDFTLKISRVEAEDVGVYYCFQGTHVPYTFGGGTKVEIKR",EC50,[1],~11 nM
same,EC50,[2],0.633 nM
same,IC50,[3],0.386 nM
same,EC50,[4],~16.6 nM
same,IC50,[5],1.83 nM
same,EC50,[6],~4000 nM
same,EC50,[7],~7840 nM
same,EC50,[8],0.249 nM
same,EC50,[9],0.482 nM
same,Kd,human SIRPα-his protein [10],26.7 nM
same,koff,human SIRPα-his protein [10],0.00775 s⁻¹
same,kon,human SIRPα-his protein [10],290000 M⁻¹ s⁻¹
same,IC50,[11],0.361 nM
same,IC50,[12],0.338 nM
same,IC50,human SIRPα-his protein [13],3.92 nM
same,Kd,human SIRPβ-his protein,30.5 nM
same,koff,human SIRPβ-his protein,0.00928 s⁻¹
same,kon,human SIRPβ-his protein,304000 M⁻¹ s⁻¹
same,IC50,[14],1.9 nM
same,EC50,[15],0.509 nM
same,EC50,[16],15.2 nM
same,EC50,[17],0.46 nM
same,EC50,[18],~167 nM
same,EC50,[19],0.585 nM
same,EC50,[20],0.545 nM
same,EC50,[21],12.2 nM
